Assay results published in paper PMC3269963 (Journal of Immunology (Baltimore, Md. : 1950), 2011).

Biological target: recombinant His-tag PCNA (proliferating cell nuclear antigen) (human, UniProt P12004 1-261)
Experiment: SPR

Chain of recombinant His-tag PCNA (proliferating cell nuclear antigen) (P12004 whole entry): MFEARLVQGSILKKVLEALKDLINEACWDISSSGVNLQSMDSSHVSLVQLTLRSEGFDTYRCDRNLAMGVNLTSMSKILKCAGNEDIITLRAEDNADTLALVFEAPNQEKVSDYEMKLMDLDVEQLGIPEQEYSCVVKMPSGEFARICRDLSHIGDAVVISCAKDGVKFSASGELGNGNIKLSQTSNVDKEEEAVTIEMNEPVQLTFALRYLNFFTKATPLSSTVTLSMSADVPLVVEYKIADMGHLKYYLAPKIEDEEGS

B1: NKp44-Ig (Fc fusion, UniProt O95944 22-192, looked up)
chain: QSKAQVLQSVAGQTLTVRCQYPPTGSLYEKKGWCKEASALVCIRLVTSSKPRTMAWTSRFTIWDDPDAGFFTVTMTDLREEDSGHYWCRIYRPSDNSVSKSVRFYLVVSPASASTQTSWTPRDLVSSQTQTQSCVPPTAGARQAPESPSTIPVPSQPQNSTLRPGPAAPIA
Q: B1 was tested. Which Kd did it give?
A: 3.4 nM
